Assay: yeast display, Sf9 membrane polyspecificity reagent, FACS + sequencing; frameworks hold sequencing errors
How it was run: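 Polyreactivity labels are assigned by the sorting gate from which each nanobody was recovered. The gates were low and high (top ~1%), set on anti-HA fluorescence for expression and streptavidin fluorescence for reagent binding. Before sorting, galactose-induced (36–48 hours) yeast display cells were stained for 1 hour at 4 °C with 10% biotinylated, detergent-solubilized Sf9 membrane reagent.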
For “QVQLVESGGGLVQAGGSLRLSCAASGSIFLYARGWYRQAPGKERELVAAINRRGGSTYYADSVKGRFTISRDNAKNTVYLQMNSLKPEDTAVYYCAVVYLLPRYWWRYDYWGQGTQVTVSS”, the “polyreactivity (PSR sort gate)” value was “low polyreactivity”. With “QVQLVESGGGLVQAGGSLRLSCAASGSIFLYKAMGWYRQAPGKERELVADITSRGGSTYYADSVKGRFTISRDNAKNTVYLQMTSLKPEDTAVYDCNAVSRYVYGNGKNYYWGQGTHVTVSS” the “polyreactivity (PSR sort gate)” value was “high polyreactivity”. In the case of “QVQLVESGGGLVQAGGSLRLSCAASGSIFLYNAMGWYRQAPGKERELVAAIRGSDGITFYADSVKGRFTISRDNAKNTVYLQMNSLKPEDTAVYYCAKDTYRSPRHDYGYWGQGTQVTVSS”, the “polyreactivity (PSR sort gate)” value is reported as “low polyreactivity”. For “QVQLVESGGGLVQAGGSLRLSCAASGSIFLYNAMGWYRQAPGKERELVAAISRSSTSTYYSDSVKGRFTISRDNAKNTVYLQMNSLKPEDTAVYYCAARGRVTYWGQGTQVTVSS”, the “polyreactivity (PSR sort gate)” value was “high polyreactivity”. With “QVQLVESGGGLVQAGGSLRLSCAASGSIFLYYVMGWYRQAPGKERELVAAITWDGGSTYYADSVKGRFTISRDNAKNTVYLQMNSLKPEDTAVYYCNKDTTYSYYTEPYDYWGQGTQVTVSS” the “polyreactivity (PSR sort gate)” value was “low polyreactivity”. In the case of “QVQLVESGGGLVQAGGSLRLSCAASGSIFNANAMGWYRQAPGKERELVAGIRSGSSTNYADSVKGRFTISRDNAKNTVYFQMNSLKPEDTAVYYCATEGYWVYGFDDEDWGQGTQVTVSS”, the “polyreactivity (PSR sort gate)” value is reported as “low polyreactivity”. In the case of “QVQLVESGGGLVQAGGSLRLSCAASGSIFNGNARGWYRQAPGKERELVAAITRRGGRTYYADSVKGRFTISRDNEKNTVYLQMNSLQPEDTAFYYCATPVDYKTGYYYWVQGTQVTVSS”, the “polyreactivity (PSR sort gate)” value is reported as “high polyreactivity”. In the case of “QVQLVESGGGLVQAGGSLRLSCAASGSIFNGYAMGWYRQSPGKERELVAVISGSGGSTYYADSVKGRFTISRDNAKNTVYLQMNSLKPEDTAVYYCAAKPGYYGYWGQGTQVTVSS”, the “polyreactivity (PSR sort gate)” value is reported as “high polyreactivity”. In the case of “QVQLVESGGGLVQAGGSLRLSCAASGSIFNINAMGWYRQAPGKERELVAAITTSGGRTYYADSVKGRFTISRDNAKNTVYLQMNSLKPEVTAVYYCATSHYGSTGNYWGQGTQVTVSS”, the “polyreactivity (PSR sort gate)” value is reported as “low polyreactivity”. With “QVQLVESGGGLVQAGGSLRLSCAASGSIFNINAMGWYRQAPGKESELVATITSGGTTSYADSVKGRFTISRDNAKNTVYLQMNSLKPEDTAVYYCNAEIYPIVKAGLQHPRRYDYWGQGTQVTVSS” the “polyreactivity (PSR sort gate)” value was “low polyreactivity”. With “QVQLVESGGGLVQAGGSLRLSCAASGSIFNIYAMGLYRQAPGKERELVATITGIADSTYYADSVKGRFTISRDNAKNTVYLQMNSLKPEDTAVYYCAADKYVAEYDYWGQGTQVTVSS” the “polyreactivity (PSR sort gate)” value was “low polyreactivity”. For “QVQLVESGGGLVQAGGSLRLSCAASGSIFNIYAMGWYRQAPGKERELVAAIRWTGGSTYYADSVKGRFTISRDNAKNTVYLQMHSLKPEDTALYYSAARTSRGGHYYWGHGTQVTVSS”, the “polyreactivity (PSR sort gate)” value was “high polyreactivity”. With “QVQLVESGGGLVQAGGSLRLSCAASGSIFNLYAMGWYRQAPGKERELVAGIRWSGGRTYYADSVKGRFTISRDNAKNTVYLQMNSLKPEDTAVYYCNAVGYLSWWNDYDYWGQGTQVTVSS” the “polyreactivity (PSR sort gate)” value was “high polyreactivity”. For “QVQLVESGGGLVQAGGSLRLSCAASGSIFNPYVMGWYRQAPGKERELVAAISSSGGRTYYADSVKGRFTISRDNAKNTVYLQMNSLKPEDTAVYYCAAIPRQGYDYWGQGTQVTVSS”, the “polyreactivity (PSR sort gate)” value was “high polyreactivity”. With “QVQLVESGGGLVQAGGSLRLSCAASGSIFNRYAMGWYRQAPGKERELVAAITWNGGSTYYADSVKGRFTISRDNAKNTVYLQMNSLKPEDTAVYYCNKASLRGSYARYSYDYWGQGTQVTVSS” the “polyreactivity (PSR sort gate)” value was “high polyreactivity”. For “QVQLVESGGGLVQAGGSLRLSCAASGSIFNTYAMGWYRQAPGKERELVAAISRSGDSTYYADSVKGRFTISRDNAKNTVYLQMNSLKPEDSAVYYCATGRTDHGYYYWGQGTQVTVSS”, the “polyreactivity (PSR sort gate)” value was “high polyreactivity”. With “QVQLVESGGGLVQAGGSLRLSCAASGSIFNWNTMGWYRQAPGKERELVAAITYDGGTTYYADSVKGRFTISRDNAKNTVYLQMNSLKPEDTAVYYCAAEFLYKYGRYDYWGQGTQVTVSS” the “polyreactivity (PSR sort gate)” value was “high polyreactivity”. With “QVQLVESGGGLVQAGGSLRLSCAASGSIFNWNTMGWYRQAPGKERELVAAITYDGGTTYYADSVKGRFTISRDYAKNNVYLQMISLKPEDTAVYYCAAEFLYKYGRYDYWGQGTQVTVSS” the “polyreactivity (PSR sort gate)” value was “high polyreactivity”. In the case of “QVQLVESGGGLVQAGGSLRLSCAASGSIFNYNDMGWYRQAPGKERELVAAIDSSGTSTYYADSVKGRFTISRDNAKNTVYLQMNSLKPEDTAVYYCNADSSLGFGYWGQGTLVTVSS”, the “polyreactivity (PSR sort gate)” value is reported as “low polyreactivity”. For “QVQLVESGGGLVQAGGSLRLSCAASGSIFNYNDMGWYRQAPGKERELVAAIDSSGTSTYYADSVKGRFTISRDNAKNTVYLQMTSLKPEDTAVYYCNADYRGWGYHMDYWGQGTQVTVSS”, the “polyreactivity (PSR sort gate)” value was “low polyreactivity”. In the case of “QVQLVESGGGLVQAGGSLRLSCAASGSIFNYNTMGWYRQAPGKERELVADISWSGGSTYYADSVKGRFTISRDNAKNTVYLQMNSLKPEDTAVYYCAADFGLFPYVGTGYYYWGQGTQVTVSS”, the “polyreactivity (PSR sort gate)” value is reported as “low polyreactivity”. In the case of “QVQLVESGGGLVQAGGSLRLSCAASGSIFNYYAMGWYRQAPGKERDLVAAITTSGGNTYYADSVKGRFTISRDNAKNTVYLLMYSLKPEDTAVYYCAADYWASGGEYDYWGQGTQVSVSS”, the “polyreactivity (PSR sort gate)” value is reported as “low polyreactivity”. With “QVQLVESGGGLVQAGGSLRLSCAASGSIFPANAMGWYRQAPGKERELVAAISRRGGNTNYADSVKGRFTISRDNAKNTVYLQMNSLKPEDTAVYYCAAYYYYRRYDYWGQGTQVTVSS” the “polyreactivity (PSR sort gate)” value was “high polyreactivity”. For “QVQLVESGGGLVQAGGSLRLSCAASGSIFPANAMGWYRQAPGKEWEFVAAINWSTGTTYYADSVKGRFTIARDNAKNTVYLQMNRLKPEETPVYYCNASDQAKYDYWGQGTQVTVSS”, the “polyreactivity (PSR sort gate)” value was “low polyreactivity”. For “QVQLVESGGGLVQAGGSLRLSCAASGSIFPANAMGWYRQPPGKERELVAAISRRGGNTYYADSVKGRFTISRDNAKNTVYLQMNSLKPEDTAVYYCAAYYFYRRYDYWGQGTQVTVSS”, the “polyreactivity (PSR sort gate)” value was “high polyreactivity”. In the case of “QVQLVESGGGLVQAGGSLRLSCAASGSIFPAYAMGWYRQAPGKERELVASITGSGGSTYYADSVKGRFTISRDNAKNTVYLQMNSLKPEDTAVYYCNARYYVYSATVDRYYHFYYWGQGTQVTVSS”, the “polyreactivity (PSR sort gate)” value is reported as “high polyreactivity”. In the case of “QVQLVESGGGLVQAGGSLRLSCAASGSIFPAYTMGWYRQAPGKERELVAAIPYSGARSTYYADSVKGRVTNSRDNAKNTVYLQMNSLKPEDTAVYYCNARDRARYFYDMDYWGQGTQVTVSS”, the “polyreactivity (PSR sort gate)” value is reported as “low polyreactivity”. With “QVQLVESGGGLVQAGGSLRLSCAASGSIFPENAMGWYRQAPGKERELVAAITSSDSSTYYADSVKGRFTISRDNAKNTVYLHMNSLKPEDTAVYSCAAYRVGFRFREYYWGQGTQVTVSS” the “polyreactivity (PSR sort gate)” value was “low polyreactivity”. With “QVQLVESGGGLVQAGGSLRLSCAASGSIFPENAMGWYRQAPGKERELVAAITSSDSSTYYADSVKGRFTISRDNAKNTVYLQMNSLKPEDTAVYYCAAYRVGFRFREYYWGQGTQVTVSS” the “polyreactivity (PSR sort gate)” value was “low polyreactivity”. For “QVQLVESGGGLVQAGGSLRLSCAASGSIFPFNAMGCYRQAPGKERELVAAISYSGGSTYYADSVKGRFTISRDNAKNTVYLQMTRLKPEDTAVYYCNRLLRRHLYIFYYWGQGTLVTVSS”, the “polyreactivity (PSR sort gate)” value was “high polyreactivity”. With “QVQLVESGGGLVQAGGSLRLSCAASGSIFPFNAMGWYRQAPGKERELVAAISRRGTGTYYADSVKGRFTISRDNAKNTVYLQMNSLKPEDTAVYYCNAVVRAGHYDYWGQGTQVTLSS” the “polyreactivity (PSR sort gate)” value was “high polyreactivity”. In the case of “QVQLVESGGGLVQAGGSLRLSCAASGSIFPFYAMGWFRQAPGKERELVAAISWSGGSTYYADSVKGRFTISRDNAKNTVYLQMNSLKPEDTAVYYCNRADGYSFSLNRSDYWGQGTQVTVSS”, the “polyreactivity (PSR sort gate)” value is reported as “low polyreactivity”. For “QVQLVESGGGLVQAGGSLRLSCAASGSIFPFYAMGWYRQAPGKERELVATISWSGGRTYYADSVKGRFTISRDNAKYTVDLQMNTLKPEDTAVYYCAAGSYHYPNAYYYWGQGTQVTVSS”, the “polyreactivity (PSR sort gate)” value was “high polyreactivity”. In the case of “QVQLVESGGGLVQAGGSLRLSCAASGSIFPGYAMAWYRQAPGKERELVAAISRSGGITYYADSVKGRFTISRDNAKNTVYLQMNSLKPEDTSVYYCAKTLPSNGHYDYWGQGTQVTVSS”, the “polyreactivity (PSR sort gate)” value is reported as “low polyreactivity”. With “QVQLVESGGGLVQAGGSLRLSCAASGSIFPGYAMGWYRQAPGKERELVAAIDRSGGSTYYADSVKGRFTISRDNAKNTVYLQMNSLKPEDTAVYYCNRVFTWRYGYRYEYWGQGTQVTVSS” the “polyreactivity (PSR sort gate)” value was “high polyreactivity”. With “QVQLVESGGGLVQAGGSLRLSCAASGSIFPGYAMGWYRQAPGKERELVATITWSGGSTYYADSVKGRFTISRDNAKNTVYLQMISLKTEDTAVYYCNADSNCYYQWNYYGLYDYWGQGTQVTVSS” the “polyreactivity (PSR sort gate)” value was “low polyreactivity”. With “QVQLVESGGGLVQAGGSLRLSCAASGSIFPGYAMGWYRQAPGKERELVATITWSGGSTYYADSVKGRFTISRDNAKNTVYLQMNSLIPEDTAVYYCNADSNWYYQWNYYGLYDYWGQGTQVTVSS” the “polyreactivity (PSR sort gate)” value was “low polyreactivity”. In the case of “QVQLVESGGGLVQAGGSLRLSCAASGSIFPGYAMGWYRQAPGKERELVATITYSDGSTYYADSVKGRFTISRDNAKNTVYLQMNSLKPEDTAVYYCAVTYWWYYGYDYWGQGTQVTVSS”, the “polyreactivity (PSR sort gate)” value is reported as “low polyreactivity”. With “QVQLVESGGGLVQAGGSLRLSCAASGSIFPGYSMGWCRQAPGKERELVAAISISGGDTYYADSVKGRFTISRDNAKNTGYFQMNSLKPEDTSVYHCNKEDDDREWFEYYWWYDYWGQGTQVTVTS” the “polyreactivity (PSR sort gate)” value was “high polyreactivity”. In the case of “QVQLVESGGGLVQAGGSLRLSCAASGSIFPGYVMGWYRQAPGTERELVAAISWSGGSTYYADSVKGRFTISRDNAMNTVYLQLNSLKPEDTAVYYWAADYSYYHGPSRHKHDYWGQGTQVTVSS”, the “polyreactivity (PSR sort gate)” value is reported as “low polyreactivity”. In the case of “QVQLVESGGGLVQAGGSLRLSCAASGSIFPIYAMGWYRQAPGKERELVAAINRSGGSTYYADSVKGRFTISRDNAKNTVYLQMNSLKPEDTAVYYCNADYGYHNQLFWGYYGWSSDHWGQGTQVTVSS”, the “polyreactivity (PSR sort gate)” value is reported as “low polyreactivity”. With “QVQLVESGGGLVQAGGSLRLSCAASGSIFPIYAMGWYRQAPGKERELVAAITRSDGSTYYADSVKGRFTISRDNAKNTVYLQMNSLNPEDTAVYYCGDYGYWGQGTQVTVSS” the “polyreactivity (PSR sort gate)” value was “low polyreactivity”. For “QVQLVESGGGLVQAGGSLRLSCAASGSIFPIYAWGWYRQAPGKERELVAAISGSGARTYYSDSVKGRFTISRDNAKNTVYLQMNSLKPEDTAVYYCNAKYGYDSEARIVKPVRYDYWGQGTQVTVSS”, the “polyreactivity (PSR sort gate)” value was “high polyreactivity”.

From the nanobody polyreactivity screen of Harvey et al. (2022)
